Here are results for one sequence from publication PMC10957929.

For this data set, the target named is T1, GST-DRG9Nip (Oryza sativa ssp. japonica cv. Nipponbare) (UniProt Q69P58).
T1 sequence: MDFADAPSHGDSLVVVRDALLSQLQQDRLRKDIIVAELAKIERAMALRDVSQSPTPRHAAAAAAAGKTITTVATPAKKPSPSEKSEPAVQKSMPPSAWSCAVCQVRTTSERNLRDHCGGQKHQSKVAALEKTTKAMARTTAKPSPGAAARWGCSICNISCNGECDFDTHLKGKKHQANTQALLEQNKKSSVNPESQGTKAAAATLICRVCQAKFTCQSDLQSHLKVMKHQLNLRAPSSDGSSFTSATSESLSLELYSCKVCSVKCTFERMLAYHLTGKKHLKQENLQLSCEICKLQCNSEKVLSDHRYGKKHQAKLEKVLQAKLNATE
Briefly: EMSA. Conditions: 20 mM Hepes pH 7.5, 20 mM KCl2 (so in the source), 1 mM MgCl2, 10 mM ZnCl2, 5 mM DTT, 10% glycerol, 0.1% NP-40, room temperature, 1 h; 6% native PAGE, 0.5x TBE. (Mobility shift assays separate free from complexed probe on a gel.)

Regarding “GGGCUCAAAUUAAUUAGCCAGUGAAAAAUCAAAUUACAGAGUUGCUUAAUUUUUUUACUAGUAGAACGCAACAGUAAAAAGAAUUAACAGCAGUGAAUUAUUAGUUAAUUAGCUAGGGAGUUGAAAUAGUUUAGCGGUCAUGCACUACUGAUUUUUAAUUAGUGCAGACAACGACCGCGUGUGUGUAUAUGCAUGUAUACCUUUUACUGUAUCUUCAGAUUGUGUAUAUAUAUCAUAUAUGUACAGGAAAAGAUUUAUAUAUCAUACAUAUUUUGUUGU [OsNCED4 3'-UTR RNA]”, the binding result is given as “binds”.
